One molecule from PMC3192265 (Molecular microbiology, 2011) can be followed below.

The experiment concerns the target T1, B. subtilis DnaA (no tag) (B. subtilis, UniProt P05648 1-446).
T1 sequence (looked up): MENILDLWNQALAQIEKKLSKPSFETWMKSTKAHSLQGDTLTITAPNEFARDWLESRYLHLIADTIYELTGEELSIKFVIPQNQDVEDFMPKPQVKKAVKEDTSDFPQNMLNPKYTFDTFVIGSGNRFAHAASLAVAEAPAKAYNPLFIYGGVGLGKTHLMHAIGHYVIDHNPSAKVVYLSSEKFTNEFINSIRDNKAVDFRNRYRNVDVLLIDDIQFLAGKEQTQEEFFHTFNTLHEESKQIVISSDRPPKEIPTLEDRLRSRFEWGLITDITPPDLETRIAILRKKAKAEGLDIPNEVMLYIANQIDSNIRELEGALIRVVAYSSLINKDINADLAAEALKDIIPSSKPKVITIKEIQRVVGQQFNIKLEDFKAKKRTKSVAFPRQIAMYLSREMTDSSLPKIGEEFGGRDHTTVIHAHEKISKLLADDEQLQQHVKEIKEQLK
Briefly: native gel or EMSA. (Mobility shift assays separate free from complexed probe on a gel.)

B1: his-YabA (recombinant YabA with a hexa-histidine tag at its N-terminus) (natural protein)
chain: not shown
Turning to B1, the binding result is recorded as “binds”.
